Measured values taken from patent US20250381289A1, “EGFR AND C-MET BISPECIFIC BINDING AGENTS, CONJUGATES THEREOF AND METHODS OF USING THE SAME” (GENMAB A/S, priority 2024, published 2025).

Tested on: EGFR and cMET co-expressed tumor cell lines (A431, A549, MDA-MB-468, MKN-45, NCI-H441, NCI-H1975)
Experiment: Binding activity of parent mAbs by flow cytometry
Conditions: flow cytometry on tumor cell lines, FIGS. 1A-1F, Table 4; compared with telisotuzumab (teliso)
Method: EGFR and cMET co-expressed tumor cell lines including A431 (ATCC® CRL-1555), A549 (ATCC® CCL-185, Provided by Procell), MDA-MB-468 (ATCC® HTB-132, Provided by Procell), MKN-45 (CL-0292, Provided by Procell), NCI-H441 (ATCC® HTB-174, Provided by COBIOER), NCI-H1975 (ATCC® CRL-5908, Provided by Procell) were selected for evaluating antibody binding activity by flow cytometry.
A431 was cultured with DMEM medium (Gibco, Cat #C11995500BT) containing 10% FBS. MDA-MB-468, MKN-45, NCI-H441 and NCI-H1975 were cultured with RPMI 1640 medium (Gibco, Cat #11875093) containing 10% FBS. A549 was cultured with F12K medium (Gibco, Cat #21127030) containing 10% FBS. Each antibody was incubated with different cell lines (1×10^5 cells/well) for 30 min in 0.2 mL FACS buffer (1×PBS with 0.1% BSA) at 4° C. After wash, cells were incubated with 100 μL PE-conjugated anti human Fc (Abcam, Ab98596, 1:500 dilution) for 30 min at 4° C. After wash with PBS, cells were resuspended in FACS buffer and analyzed by flow cytometer (Beckman, CytoFLEX).

| Molecule | binding activity of parent cMET mAbs (summary) |
| --- | --- |
| Nova-5091: parent cMET mAb; sequences in Table 1 (antibody, V domains shown) VH: QVQLVQSGAEVKKPGASVKVSCKASGYTFTGYYMNWVRQAPGQGLEWMGIINPWTGNTNYAQKFQGRVTMTRDTSISTAYMELSSLRSEDTAVYYCARDPGFFYYTPSDLWGQGTLVTVSS VL: DIELTQPPSVSVAPGQTARISCSGDSIGNKYVHWYQQKPGQAPVLVIYADSDRPSGIPERFSGSNSGNTATLTISGTQAEDEADYYCQSYAHYHDIWVFGGGTKLTVLG | No binding activity |
| ABF-46: parent cMET mAb, mouse antibody; sequences in Table 1 (antibody, V domains shown) VH: EVKLVESGGGLVQPGGSLRLSCATSGFTFTDYYMSWVRQPPGKALEWLGFIRNKANGYTTEYSASVKGRFTISRDNSQSILYLQMDTLRAEDSATYYCARDNWFAYWGQGTLVTVSA VL: DILMTQSPSSLTVSAGEKVTMSCKSSQSLLASGNQNNYLAWHQQKPGRSPKMLIIWASTRVSGVPDRFIGSGSGTDFTLTINSVQAEDLAVYYCQQSYSAPLTFGAGTKLELK | Lower activity than teliso, mouse antibody, filed in 2010; inferior choice |
| Onartuzumab: parent cMET mAb; sequences in Table 1 (antibody, V domains shown) VH: EVQLVESGGGLVQPGGSLRLSCAASGYTFTSYWLHWVRQAPGKGLEWVGMIDPSNSDTRFNPNFKDRFTISADTSKNTAYLQMNSLRAEDTAVYYCATYRSYVTPLDYWGQGTLVTVSS VL: DIQMTQSPSSLSASVGDRVTITCKSSQSLLYTSSQKNYLAWYQQKPGKAPKLLIYWASTRESGVPSRFSGSGSGTDFTLTISSLQPEDFATYYCQQYYAYPWTFGQGTKVEIK | Stronger binding than teliso, tumor promoting activity due to bivalent binding |
| Nova-5097: parent cMET mAb; sequences in Table 1 (antibody, V domains shown) VH: QVQLVQSGAEVKKPGSSVKVSCKASGGTFSSYAISWVRQAPGQGLEWMGGIDPFGTANYAQKFQGRVTITADESTSTAYMELSSLRSEDTAVYYCARVYQDVWGQGTLVTVSS VL: DIVMTQSPDSLAVSLGERATINCRSSQSILYGINNNFLGWYQQKPGQPPKLLIYWASTRESGVPDRFSGSGSGTDFTLTISSLQAEDVAVYYCQQYAFGWTFGQGTKVEIK | Stronger binding than teliso, no clinical validation |
| Nova-5098: parent cMET mAb; sequences in Table 1 (antibody, V domains shown) VH: QVQLVQSGAEVKKPGSSVKVSCKASGGTFSSYAISWVRQAPGQGLEWMGGIDPFGTANYAQKFQGRVTITADESTSTAYMELSSLRSEDTAVYYCARVYQDVWGQGTLVTVSS VL: DIVMTQSPDSLAVSLGERATINCRSSQSILYGINNNFLGWYQQKPGQPPKLLIYWASTRESGVPDRFSGSGSGTDFTLTISSLQAEDVAVYYCLQYSDEPWTFGQGTKVEIK | Stronger binding than teliso, no clinical validation |
| Nova-5185: parent cMET mAb; sequences in Table 1 (antibody, V domains shown) VH: QVQLVQSGAEVKKPGSSVKVSCKASGGTFSSYAISWVRQAPGQGLEWMGGIDPIMGTEYAQKFQGRVTITADESTSTAYMELSSLRSEDTAVYYCARVYQDVWGQGTLVTVSS VL: DIVMTQSPDSLAVSLGERATINCRSSQSILYGINNNFLGWYQQKPGQPPKLLIYWASTRESGVPDRFSGSGSGTDFTLTISSLQAEDVAVYYCQQYAYEPNTFGQGTKVEIK | Stronger binding than teliso, seems to have off-target binding |
